Assay results published in US20260207759A1, “COMPOSITION OF CD40-BINDING MOLECULE AND PHARMACEUTICAL USE THEREOF” (SUZHOU SUNCADIA BIOPHARMACEUTICALS CO., LTD., priority 2022, published 2026).
Read-outs that look alike come from different tables or passages of the source.

Columns and labels:
[1] = molecular target: human CD40 on the cell surface (Raji cells, HEK-Blue CD40L cells, primary human B cells and DCs) (human) (UniProt P25942); test: cell-based or functional assay
[2] = molecular target: human CD40 on the cell surface (Raji cells, HEK-Blue CD40L cells, primary human B cells and DCs) (human) (UniProt P25942); test: flow cytometry (FACS) binding to Raji cells
[3] = molecular target: human CD40 on the cell surface (Raji cells, HEK-Blue CD40L cells, primary human B cells and DCs) (human) (UniProt P25942); test: flow cytometry (FACS) binding to Raji cells; remark: listed apart in the source
[4] = molecular target: his-tagged human CD40 recombinant protein (h-CD40-his, Acrobiosystems Cat. #CD0-H5228) (human) (UniProt P25942); test: SPR (Biacore), antibody captured on anti-human Fc chip, His-tagged CD40 as analyte, 1:1 model
his-tagged human CD40 recombinant protein (h-CD40-his, Acrobiosystems Cat. #CD0-H5228) (human), sequence (P25942 21-193 limits assumed): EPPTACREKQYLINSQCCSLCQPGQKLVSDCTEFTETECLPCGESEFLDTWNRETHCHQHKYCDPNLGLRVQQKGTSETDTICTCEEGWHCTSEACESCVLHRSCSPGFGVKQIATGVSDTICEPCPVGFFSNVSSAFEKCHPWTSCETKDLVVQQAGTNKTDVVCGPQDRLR

human CD40 on the cell surface (Raji cells, HEK-Blue CD40L cells, primary human B cells and DCs) (human), sequence (P25942 21-277): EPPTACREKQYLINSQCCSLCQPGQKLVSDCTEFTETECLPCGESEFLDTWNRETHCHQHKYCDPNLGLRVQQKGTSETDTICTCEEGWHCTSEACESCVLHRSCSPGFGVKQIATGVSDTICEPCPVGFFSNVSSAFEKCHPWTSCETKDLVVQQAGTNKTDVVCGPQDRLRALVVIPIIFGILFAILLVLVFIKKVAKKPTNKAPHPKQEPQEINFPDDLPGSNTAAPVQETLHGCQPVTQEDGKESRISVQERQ

B cell activation assay, CD19+CD69+ %, IC50 [1]: 0.14 nM | B cell activation assay, CD19+CD69+ %, maximum inhibition rate [1]: 95% | B cell activation assay, CD19+CD69+ MFI, IC50 [1]: 0.07 nM | B cell activation assay, CD19+CD69+ MFI, maximum inhibition rate [1]: 110% | IC50 for the inhibition of CD40 reporter gene cell activity (Experiment 1) [1]: 0.36 nM | IC50 for the inhibition of CD40 reporter gene cell activity (Experiment 2) [1]: 0.35 nM | IC50 in DC cell activation assay system, CD80 MFI [1]: 1.19 nM | IC50 in DC cell activation assay system, CD86 MFI [1]: 1.93 nM | IC50 in DC cell activation assay system, IL-12/23 p40 [1]: 0.68 nM | IC50 in DC cell activation assay system, TNFα [1]: 0.35 nM | Reporter gene cell activity IC50 (SEAP, HEK-Blue CD40L cells stimulated with CD40L) [1]: 0.272 nM | EC50 [2]: 2.41 nM | EC50 [3]: 1.01 nM | Kd [4]: 0.205 nM | koff [4]: 0.000141 s⁻¹ | kon [4]: 688000 M⁻¹ s⁻¹
Substance: CFZ533 (iscalimab), anti-CD40 antagonistic antibody, positive control
